Results as given in patent EP1260521B1.

Legend:
[1] = biological target: membrane IgE on U266 B1 cells (human) (UniProt P01854); test: FACS on U266 B1 cells
[2] = biological target: FCEH-bound IgE (human IgE loaded on FcERI alpha) (human) (UniProt P01854); test: cell-based or functional assay
human IgE (human) = human IgE (human) (UniProt P01854); test: 50% inhibition assay of IgE binding to FCEH

| EC50 [1] [µg/mL] | PBL Histamine Release (EC50) [2] [µg/mL] | IC50 (human IgE (human)) [µg/mL] | Var. X / IgL1H1 (human IgE (human)) | Var. X / MaE11 (human IgE (human)) | Binder |
| --- | --- | --- | --- | --- | --- |
| 6 | > 100 | – | – | – | MaE 15 (antibody, from another filing, mouse IgG1, V domains shown) VH: DVQHQESEPDLVKPSQSLSLTCTVTGYSITSGYNRHWIRQFPGNKLEWMGYIHYSGSTNYNPSLKRRISITRDTSKNQFFLQLNSVTTEDTATYYCARGSIYYYGSRYRYFDVWGAGTTVTVSS VL: DIQLTQSPASLAVSLGQRATISCKASQSVDYDGDSYMNWYQQKPGQPPKLLIYAASNLESGIPARFSGSGSGTDFTLNIHPVEEEDAATYYCQQSNEDPFTFGAGT |
| 0.15 | > 100 | 0.449 | 0.06 | 1 | MaE 11 (antibody, from another filing, mouse IgG1, V domains shown) VH: DVQLQESGPGLVKPSQSLSLACSVTGYSITSGYSWNWIRQFPGNKLEWMGSITYDGSSNYNPSLKNRISVTRDTSQNQFFLKLNSATAEDTATYYCARGSHYFGHWHFAVWGAGTTVTVSS VL: DIVLTQSPASLAVSLGQRATISCKASQSVDYDGDSYMNWYQQKPGQPPILLIYAASYLGSEIPARFSGSGSGTDFTLNIHPVEEEDAATFYCQQSHEDPYTFGAGTKLEIK |
| 1 | > 10 | – | – | – | MaE 13 (antibody, from another filing, mouse IgG1, V domains shown) VH: DVQLQESGPGLVKPSQSLSLTCTVTGYTITSDNAWNWIRQFPGNKLEWMGYINHSGTTSYNPSLKSRISITRDTSKNQFFLQLNSVTTEDTATYYCAWVVAYAMDYWGQGTSVTVSS VL: DIVMTQSQKFMSTSVGDRVSVTCKASQNVSSNVAWYQQKPGQSPKALIYSASYRYSGVPDRFTGSGSGTDFTLTISNVQSEDLAEYFCQQYYTYPLYTFGGGTKLEIKR |
